Experimental data: paper PMC9797636, “Transcriptomic and enzymatic analysis reveals the roles of glutamate dehydrogenase in Corynebacterium glutamicum” (AMB Express, 2022)

Columns and labels:
Experiment in all cases: purified protein
Type in all cases: biochemical, Corynebacterium glutamicum
purified protein [1] = substrate: NC(=O)C1=CN([C@@H]2O[C@H](COP(=O)(O)OP(=O)(O)OC[C@H]3O[C@@H](n4cnc5c(N)ncnc54)[C@H](OP(=O)(O)O)[C@@H]3O)[C@@H](O)[C@H]2O)C=CC1; conditions: reductive amination, 2-oxoglutarate, NH4Cl, Tris-HCl pH 7.0, 25 °C, pH 7.0
purified protein [2] = substrate: NC(=O)c1ccc[n+]([C@@H]2O[C@H](COP(=O)(O)OP(=O)(O)OC[C@H]3O[C@@H](n4cnc5c(N)ncnc54)[C@H](OP(=O)(O)O)[C@@H]3O)[C@@H](O)[C@H]2O)c1; conditions: oxidative deamination, L-glutamate, Tris-HCl, 25 °C
purified protein [3] = substrate: O=C(O)CCC(=O)C(=O)O; conditions: reductive amination, NADPH, NH4Cl, Tris-HCl pH 7.0, 25 °C, pH 7.0

B1: GdhA (Corynebacterium glutamicum ATCC 13032) (protein)
chain: MTVDEQVSNYYDMLLKRNAGEPEFHQAVAEVLESLKIVLEKDPHYADYGLIQRLCEPERQLIFRVPWVDDQGQVHVNRGFRVQFNSALGPYKGGLRFHPSVNLGIVKFLGFEQIFKNSLTGLPIGGGKGGSDFDPKGKSDLEIMRFCQSFMTELHRHIGEYRDVPAGDIGVGGREIGYLFGHYRRMANQHESGVLTGKGLTWGGSLVRTEATGYGCVYFVSEMIKAKGESISGQKIIVSGSGNVATYAIEKAQELGATVIGFSDSSGWVHTPNGVDVAKLREIKEVRRARVSVYADEVEGATYHTDGSIWDLKCDIALPCATQNELNGENAKTLADNGCRFVAEGANMPSTPEAVEVFRERDIRFGPGKAANAGGVATSALEMQQNASRDSWSFEYTDERLQVIMKNIFKTCAETAAEYGHENDYVVGANIAGFKKVADAMLAQGVI
Km (purified protein [1]): 166 µM | Vmax (purified protein [1]): 1.54 µmol/min/mg | kcat (purified protein [1]): 0.257 s⁻¹ | kcat/Km (purified protein [1]): 1540 M⁻¹ s⁻¹ | Km (purified protein [2]): 505 µM | Vmax (purified protein [2]): 1.34 µmol/min/mg | kcat (purified protein [2]): 0.224 s⁻¹ | kcat/Km (purified protein [2]): 443 M⁻¹ s⁻¹ | Km (purified protein [3]): 2534 µM | Vmax (purified protein [3]): 0.809 µmol/min/mg | kcat (purified protein [3]): 0.135 s⁻¹ | kcat/Km (purified protein [3]): 53.2 M⁻¹ s⁻¹
